# Results from the supplement of paper PMC9112550, “Optimization of the antimicrobial peptide Bac7 by deep mutational scanning” (BMC Biology, 2022).
# Tested on: Escherichia coli TOP10
# Test: shrunken log2 fold change of peptide-encoding DNA abundance (4.5 h post-induction vs induction); higher = less antimicrobial activity (less host growth inhibition)
# Conditions: time post-induction: 4.5 h; library: site-saturation at positions 5, 18, 19, 20
# 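Note: peptides expressed intracellularly from a pBAD plasmid library in pooled LB shake-flask culture, induced with 0.3% L-arabinose, DNA abundance read by NGS, three biological replicates, DESeq2 with apeglm shrinkage.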
row,Sequence,shrunken log2 fold change
1,RRIRKRPPRLPRPRPRPSHYPRP,-0.248
2,RRIRRRPPRLPRPRPRPLCIPRP,-0.119
3,RRIRVRPPRLPRPRPRPNQWPRP,-0.264
4,RRIRMRPPRLPRPRPRPKNVPRP,-0.16
5,RRIRYRPPRLPRPRPRPKFLPRP,-0.139
6,RRIRSRPPRLPRPRPRPNHHPRP,-0.566
7,RRIRLRPPRLPRPRPRPYHSPRP,-0.018
8,RRIRIRPPRLPRPRPRPESRPRP,0.0553
9,RRIRYRPPRLPRPRPRPQSYPRP,-0.0246
10,RRIRIRPPRLPRPRPRPPMCPRP,-0.0556
11,RRIRSRPPRLPRPRPRPQTNPRP,-0.032
12,RRIRCRPPRLPRPRPRPTYQPRP,-0.346
13,RRIRTRPPRLPRPRPRPEHLPRP,-0.00973
14,RRIRFRPPRLPRPRPRPWGWPRP,0.346
15,RRIRNRPPRLPRPRPRPVYEPRP,-0.027
16,RRIRTRPPRLPRPRPRPDYEPRP,-0.023
17,RRIRKRPPRLPRPRPRPRDEPRP,-0.0461
18,RRIRKRPPRLPRPRPRPWISPRP,0.0313
19,RRIRCRPPRLPRPRPRPMWEPRP,-0.0554
20,RRIRMRPPRLPRPRPRPFAWPRP,0.139
21,RRIRRRPPRLPRPRPRPDNTPRP,0.876
22,RRIRRRPPRLPRPRPRPGAEPRP,2.68

row,Sequence,shrunken log2 fold change
1,RRIRMRPPRLPRPRPRPMHPPRP,0.0065
2,RRIRPRPPRLPRPRPRPIVHPRP,-0.155
3,RRIRARPPRLPRPRPRPKPDPRP,0.582
4,RRIRVRPPRLPRPRPRPMMMPRP,-0.0802
5,RRIRCRPPRLPRPRPRPRNEPRP,-0.0561
6,RRIRGRPPRLPRPRPRPIFIPRP,-0.0812
7,RRIRHRPPRLPRPRPRPQKGPRP,-0.0617
8,RRIRWRPPRLPRPRPRPVYTPRP,-0.242
9,RRIRCRPPRLPRPRPRPRNNPRP,-0.282
10,RRIRKRPPRLPRPRPRPRVVPRP,0.143
11,RRIRGRPPRLPRPRPRPDRSPRP,0.23
12,RRIRNRPPRLPRPRPRPDKCPRP,-0.116
13,RRIRWRPPRLPRPRPRPLQHPRP,0.394
14,RRIRHRPPRLPRPRPRPAEAPRP,-0.0896
15,RRIRSRPPRLPRPRPRPANVPRP,0.218
16,RRIRGRPPRLPRPRPRPGRHPRP,0.314
17,RRIRTRPPRLPRPRPRPVSKPRP,-0.096
18,RRIRPRPPRLPRPRPRPVKEPRP,0.0267
19,RRIRWRPPRLPRPRPRPQFEPRP,1.87
20,RRIRGRPPRLPRPRPRPHSDPRP,0.204
21,RRIRWRPPRLPRPRPRPQNSPRP,0.0838
22,RRIRKRPPRLPRPRPRPVPHPRP,0.189

row,Sequence,shrunken log2 fold change
1,RRIRDRPPRLPRPRPRPEKLPRP,0.19
2,RRIRLRPPRLPRPRPRPFHMPRP,-0.16
3,RRIRERPPRLPRPRPRPYGIPRP,-0.00973
4,RRIRDRPPRLPRPRPRPMIWPRP,-0.0952
5,RRIRWRPPRLPRPRPRPIMTPRP,-0.00859
6,RRIRYRPPRLPRPRPRPWYGPRP,-0.258
7,RRIRRRPPRLPRPRPRPRCLPRP,0.219
8,RRIRRRPPRLPRPRPRPKKVPRP,0.242
9,RRIRLRPPRLPRPRPRPTRIPRP,-0.141
10,RRIRFRPPRLPRPRPRPPRKPRP,0.827
11,RRIRSRPPRLPRPRPRPPYNPRP,-0.602
12,RRIRDRPPRLPRPRPRPIHYPRP,-0.0149
13,RRIRDRPPRLPRPRPRPAREPRP,1.06
14,RRIRSRPPRLPRPRPRPPQIPRP,0.138
15,RRIRQRPPRLPRPRPRPQRNPRP,-0.23
16,RRIRMRPPRLPRPRPRPRRAPRP,1.55
17,RRIRQRPPRLPRPRPRPNMQPRP,-0.619
18,RRIRGRPPRLPRPRPRPCQLPRP,-0.327
19,RRIRERPPRLPRPRPRPICVPRP,-0.301
20,RRIRHRPPRLPRPRPRPFPDPRP,0.0592
21,RRIRNRPPRLPRPRPRPGCTPRP,0.0156
22,RRIRTRPPRLPRPRPRPMNRPRP,-0.0804

row,Sequence,shrunken log2 fold change
1,RRIRYRPPRLPRPRPRPQKFPRP,-0.0224
2,RRIRGRPPRLPRPRPRPCIYPRP,0.0369
3,RRIRIRPPRLPRPRPRPRSTPRP,-0.391
4,RRIRGRPPRLPRPRPRPRRTPRP,0.67
5,RRIRKRPPRLPRPRPRPEHKPRP,0.295
6,RRIRNRPPRLPRPRPRPNPKPRP,0.284
7,RRIRSRPPRLPRPRPRPDTIPRP,-1.3
8,RRIRIRPPRLPRPRPRPVCIPRP,-0.527
9,RRIRGRPPRLPRPRPRPNCTPRP,0.172
10,RRIRNRPPRLPRPRPRPQLAPRP,-0.123
11,RRIRKRPPRLPRPRPRPIRMPRP,-0.0295
12,RRIRCRPPRLPRPRPRPQDEPRP,-0.0478
13,RRIRLRPPRLPRPRPRPYDRPRP,-0.0202
14,RRIRFRPPRLPRPRPRPDHNPRP,-0.911
15,RRIRTRPPRLPRPRPRPMGTPRP,-0.0546
16,RRIRHRPPRLPRPRPRPYKHPRP,-0.512
17,RRIRFRPPRLPRPRPRPFLVPRP,-0.426
18,RRIRDRPPRLPRPRPRPTCVPRP,0.346
19,RRIRKRPPRLPRPRPRPKWTPRP,0.198
20,RRIRLRPPRLPRPRPRPQLAPRP,0.384
21,RRIRMRPPRLPRPRPRPKTIPRP,0.0873
22,RRIRRRPPRLPRPRPRPPWAPRP,0.729

row,Sequence,shrunken log2 fold change
1,RRIRIRPPRLPRPRPRPSFDPRP,-0.442
2,RRIRPRPPRLPRPRPRPRYNPRP,-0.522
3,RRIRCRPPRLPRPRPRPSVGPRP,0.0128
4,RRIRRRPPRLPRPRPRPGRAPRP,0.648
5,RRIRFRPPRLPRPRPRPFSQPRP,-0.452
6,RRIRGRPPRLPRPRPRPLGHPRP,0.595
7,RRIRERPPRLPRPRPRPCSRPRP,-0.00322
8,RRIRSRPPRLPRPRPRPVTMPRP,-0.312
9,RRIRGRPPRLPRPRPRPNDQPRP,0.265
10,RRIRCRPPRLPRPRPRPGWVPRP,0.513
11,RRIRRRPPRLPRPRPRPMCNPRP,0.0275
12,RRIRPRPPRLPRPRPRPKEIPRP,-0.0621
13,RRIRGRPPRLPRPRPRPYNCPRP,-0.0269
14,RRIRHRPPRLPRPRPRPEKGPRP,-0.00804
15,RRIRDRPPRLPRPRPRPCYPPRP,-0.0894
16,RRIRTRPPRLPRPRPRPIGRPRP,-0.159
17,RRIRSRPPRLPRPRPRPESVPRP,0.17
18,RRIRKRPPRLPRPRPRPCAQPRP,0.208
19,RRIRFRPPRLPRPRPRPRENPRP,0.449
20,RRIRRRPPRLPRPRPRPVVFPRP,0.286
21,RRIRRRPPRLPRPRPRPQELPRP,0.158
